This note sets out measurements from publication PMC4029521.

The series has as its system T1, AirR (Staphylococcus aureus NCTC8325), ORF:f68b8ed8.
T1 sequence: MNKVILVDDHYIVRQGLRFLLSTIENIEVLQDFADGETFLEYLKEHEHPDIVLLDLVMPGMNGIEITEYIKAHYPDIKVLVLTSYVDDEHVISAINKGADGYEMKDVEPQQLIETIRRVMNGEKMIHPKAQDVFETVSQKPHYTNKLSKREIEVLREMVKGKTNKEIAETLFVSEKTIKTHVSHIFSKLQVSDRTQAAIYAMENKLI
The series is described as follows: EMSA. (Mobility shift assays separate free from complexed probe on a gel.)

Regarding “GAATCGCGAACATGGACGAACGATTAGTTGTTAATTTTGAAAATTTATAAAAGGTTAAACGAATGCAGTGAGAGATGTCATTTTAATATCAATGTATGGCTATTTTGTAATGACAATGTAATGAGTTTAGTAAAACATTTCGGGAATATTAAATAGTTGGAAAATGAGAATTAAATCCTTTACTCAGTTGTCTAATTCTTTTAGTATGTGCAGTACAGTTTAATTGAAAACTAACTTTAACTTTAATGGAGGATGTTTTATACATGAAAAAATTAACAGCAGCAGCGATTGC (double strand) [lytM promoter (p-lytM)]”, the binding entry is recorded as “binds”.
For “AGCTACACGTAATTTCGCGCTTCGTGCTCTGTTATTGTCATCTAAATCTTCTTCTGTAGCGGTAATCGGTTTACGATTAACACGCTTTAACTTAGGTGTATATGCTTCTGGTATAACTGGTAATCCTCTTGGTACCTCTGGACCTTTTTCATATTCTTGGAACACCTGTTTACATAAACGATCTTCTAAAGAATGGAAAGTGATTACCGAAATCCTGCCATCTACTTTCACTAATTCAATCGCTTGTTCTATTGAATC (double strand) [pbp1 promoter (p-pbp1)]” the value was “binds”.
